System: IRAK1
Assay: In vitro phosphorylation by IRAK1 immunoprecipitated from IL-33 stimulated cells
Format: biochemical
Conditions: IRAK1 IPed from IL-33 stimulated cells, γP32 ATP, autoradiography
Description: Suppl em enta ry Figur e 2.
Supplementary Figure 2. IRAK-M DD structure modeling analysis and phosphorylation by IRAK1.
(a) Overlaid 1H-15N HSQC spectra of the 15N-labeled Pin1 WW domain showing changes in chemical environment resulting from titration with the phosphorylated IRAK-M peptide. Overlaid spectra of apo (red) and increasing amounts of ligand (rainbow of colors, with purple as highest ligand concentration) show progressive peak shifts. (b) Interaction between IRAK-M DD and IRAK1 DD from Figure 3f. Cyan: IRAK1 DDs, Yellow: IRAK-M DD. (c) The aromatic residues interaction between IRAK-M DD and IRAK4 DD from Figure 3f. Green: IRAK4 DDs, Yellow: IRAK-M DD. (d) IRAK-M or its mutants as described, were expressed in 293 cells or 293 IRAK1null cells expressing the ST2 receptor and treated with IL-33. The phosphorylation is shown by the slow migrating bands. (e) WT or Pin KO cells were treated with IL-33 and IRAK1 phosphorylation was monitored at different time after stimulation. (f) DC2.4 cells were either treated or not with IL-33. IRAK1 was IP’d and incubated with GST-IRAK-M aa1-120 in the presence of ΓP32ATP.
The beads were washed and GST-IRAK-M was eluted and run for autoradiography. […]

B1: GST-IRAK-M: purified GST-IRAK-M containing amino acids 1-120 (protein, UniProt Q8K4B2 1-120, looked up, fragment)
chain: MAGRCGARGALSPQLLLFDLPPALLGELCGILDSCDGPLGWRGLAERLSNSWLDVRHIEKYVNQGKSGTRELLWSWAQKNKTIGDLLEVLQDMGHQRAIHLIINYGVSWTPSVQTHHELP
modifications: GST tag
  phosphorylation by IRAK1: phosphorylated WT IRAK-M

From PMC5913134, “The IL-33-PIN1-IRAK-M axis is critical for type 2 immunity in IL-33-induced allergic airway inflammation” (Nature Communications, 2018)
